From the DeepSol protein solubility set come the findings set out here.

This series is described as follows: soluble on expression in E. coli; label from the status in PepcDB or PDB records.
“MAGAITLACTIRFEANAEHVYLSSGTKQTVYHYPFPMSTIHITLNGERKEVPAGSTVSELLVIADADRQPVAVVVNEHIVRPDQRDSYILQERDQVEILVFAGGGLEHHHHHH”: the “soluble on expression in E. coli” value was “soluble”.
As to “MDDASPTLASVIIPAFNAEAVLEQAVDSVRASIAHCAAHLAAAPAGAFEIILVDDASTDATLALARRLAAEDPRITVIARRRNGGAGPARNAGARAAKGEILFYLDADDGFLPPHVLACLQELLRHPEAGLVKTGIAVDFPLTEEWRQALIVSVVFNTALWKRCHEAIGGFMEDPELCVLRCEDVFYCDLLMRAFPARGIEAQTVRHTLRPGGAFDGQRAKFSAPPGEGPESLTPAQSAVLPLIRARHAERLARLGLEDAEALEHHHHHH”, the “soluble on expression in E. coli” value is reported as “not soluble”.
For “MGSDKIHHHHHHMRASVSPDIFPPRGHEAKRLSIVDAAAGVFCREGFAGANIDLIAAEAGVSRQTVYNHHGDKEKLFMAVVRDLTDRCNVGIFATIATFPDQPGDLEADLIGFAVRLNQNCICNRDGKFLRKLIQTEGERYPELFAEWREQGPGTTLPAIAARFARLAYGGYLTIDDPDVAARQFFGLVNAELQTTFMLGGTPREDEVVRSATNGVRTFLRAFGKRPAPGSVKKHIALANA”, the “soluble on expression in E. coli” value is “not soluble”.
Regarding “HPEKCSECSYSCSSKAALRIHERIHCTDRPFKCNYCSFDTKQPSNLSKHMKKFHGDM”, the “soluble on expression in E. coli” value is “soluble”.
Turning to “MNSFIEGAHQPLLSVWRRAFLFSGALLLTACSHNASPPPFTASGFAGDHGAVRIWRKDTNDEVHLLSVFSPWHSGSTTTSEYRWQGDTLSLIELNIYSKPPEHIRARFDAHGELSFMQREVGGQKQQLSNDQIALYRYRAEQIRQTSDALRLGRVILRQGRWHADHTVTTCEGETLKPDLDSWAISHIERRQNHSSVEVSVAWLEAPEGSQLLLVANSDFCHWQPQAKSF”, the “soluble on expression in E. coli” value is “not soluble”.
With “MSAEGLDKDFCGAIIPDSFFPIEKLRNYTDMGIIREFAKGSAIIMPGEDTTSMIFLMDGKIKLDIIFEDGSEKLLYYAGSNSLIGRLYPTGNNIYATAMEQTRTCWFSEECLRVIFRTDEDMIFEIFKNYLTKVAYYARQVAEINTYNPTIRILRLFYELCSSQGKRVGDTYEITMPLSQKSIGEITGAHHVTVSKVLACLKKENILDKKKNKFIVYNLEELKHLSEQTSYY” the entry was “soluble”; with “MEALRLGFSPCPNDTFIFYALVHGRVESPVPLEPVLEDVETLNRWALEGRLPLTKLSYAAYAQVRDRYVALRSGGALGRGVGPLVVARGPLQALEGLRVAVPGRHTTAYFLLSLYAQGFVPVEVRYDRILPMVAQGEVEAGLIIHESRFTYPRYGLVQVVDLGAWWEERTGLPLPLGAILARRDLGEGLIRALDEAVRRSVAYALAHPEEALDYMRAHAQELSDEVIWAHVHTYVNAFSLDVGEEGERAVARLFAEAEARGLAAPSPRPLFV”, “soluble”.
Next, “MNRHPALSLDLDDGIDRKVLGQLRQRFLAVNAGRLQRARQALSSRQERVLRLLPLLFHINHPLLPGYLSASTPAGLSGFEADDEVLAEAQRLARSFVYKPRRQEPAQQPIHGLFLMGSLGSLAQEEQSDLDLWVCHAPELEPGARQELRRKCALIEDWARSQGSEVHCFLIDVARFGQDEREDRKEPGGDGNTQHFLLLDEFYRSAIWLGGRTPLWWLVPPAHERRYDEYCRTLLGKRFIRAEEVLDLGHLAHIPAREFIGAGLWQLSKAIDSPYKSLLKLLLTEAYASEHPRVRCVALRFKEQVFAGQLDLDELDPYVLVYRHLERYLREQQAPERLELVRRCLYLKVGRKLGGRQRQAQKGWQHLSMERLVAEWQWEPRRLALLDSRSQWKMRQVMEERRTVVNELTYSYRLLFQIARQQGADSGIDSRDLGLLGRRLYAAFERKAGKVENINPGIAPDLGEDVLTLVQLPADDGREQAQWAIFPGALGAHQWPDYAPLKRSLRLVELLAWCHRNGVIDSATRLSLHPGQSDLGDAELDNLLGSLRQFLPVPLATVDDADLLQPRRLKSVLLLVNVGVDPLRHHSQMNLHMATGRTDVLGYAGVRDNLVLTLDQLSLNSWNELTVRHYAGPQALPECLAEFLDAVREKPGSPPQPPELMVRCFCRNRAAAIAVRVEELFRETYGQLLGGQPSRYLLQIRQQYHLLEMSPEAVSHESLPDLPSLLQHLGRERDGYSALKLDRHALEGEDLGLILSMGRPDCIQVFYRRDFDSAEISLLDERNALWRQRQALRDERSLLAPLQRFLQSLLYRRNALSLAEQVPAALDIRYYELLSNDGRVHVEPREAPEALAGPALYELQALLERGERKRVQVTLYCDHQEFSELEYGAGLFKAVARHILAHRAESEPYPCYLTDLDLSRLFADEQPQTLHYLRYKSVLETALNQALLE”: “not soluble”; “MPETELHVIFDQPNEVFFPGQPISGRVVLSTTKEKYKARAVNIKILGLAHTSWTDYESVRRVDADGKVSHHRQSVHYSANVNYLDYTLLLWACKDGSNELAAGEYAWSFSYNLPLNVPPSFEGKYGYLRYSVTAEVDRPWRLDKAKKRCITVSPLIDLNVIPHALTQINDQASENLGCCCFKKGYLELRVNIPKTGFVPGETVPMNIHILNHSSVPVTEVKAKIIQQCKFIAYRNGTTFHYGGGYETGMSGQLQETKHDTKTVVKHGQEMTVAPRNEHKFAMELRLPSVTPTINQFSPVITVEYIVQFHVETSSTFGSDVDCEMGILIGTVPIRQFLPPAYYPQDPNLPQILPTPIGGGVVAPPPGYGFLPMADGSEKGAGDASYPAASMPMYPIPNVPYPSKDDGTVVIPSAPPLSYEESMFGQDGTELNTDENEQPFAPKYPVFNNLPVYNPTAPPPE”: “not soluble”.
“SATALSEEELDNEDYYSLLNVRREASSEELKAAYRRLCMLYHPDKHRDPELKSQAERLFNLVHQAYEVLSDPQTRAIYDIYGKRGLEMEGWEVVERRRTPAEIREEFERLQREREERRLQQRTNPKGTISVGVDATDLFDRYDEEYEDVSGSSFPQIEINKMHISQSIEAPLTATDTAILSGSLSTQNGNGGGSINFALRRVTSAKGWGELEFGAGDLQGPLFGLKLFRNLTPRCFVTTNCALQFSSRGIRPGLTTVLARNLDKNTVGYLQWRWGIQSAMNTSIVRDTKTSHFTVALQLGIPHSFALISYQHKFQDDDQTRVKGSLKAGFFGTVVEYGAERKISRHSVLGAAVSVGVPQGVSLKVKELEKQRESAATDVLQKKQEAESAVRLMQESVRRIIEAEESRMGLIIVNAWYGKFVNDKSRKSEKVKVIDVTVPLQCLVKDSKLILTEASKAGLPGFYDPCVGEEKNLKVLYQFRGVLHQVMVLDSEALRIPKQSHRIDTDG”: the “soluble on expression in E. coli” value is “soluble”.
For “MGSDKIHHHHHHMDTDLLKTFLEVSRTRHFGKAAENLYLTRSAVSFRIKQLENILGLELFERLRNNIQPTPAGERMLGHAEAVLNAWERAKQDIILNQQHSAQLALSAGDNIWDAFLQGFLQPLHLGLEGVALRTDVLPATVMTRQLIERTLDIAITFDPPKLDGVILVKLAEVKLYLVSKQAGVKLTQTPTLPYIKVDWGTAFNITHAQDFTMLPLPVLHTSSARMALDFILNNGGCAFLPEALIKPYLDNGSLYVVDDAKCIHRHVYAAYWAENERLAYIEQAISILTTDKRTE”, the “soluble on expression in E. coli” value is “not soluble”.
Next, “MGSDKIHHHHHHAITVEENPNMMYMLVGSYATPEEEGIKVYNFDEQNGNSQYISGIKGISNPSFLIPSADGERIYAVGEDSGKSSTANAIKFDKEQKKLTLLNSQPTDGGAPCYITLSPSEKFVLTANYIGGSITVFPLDKDGKLKSETRLISFTGNSLDKERQTQPHLHCIEFTPDHKYLLASDLGTDQIHVFPVSENVTDGVSHSLLNESEEFNIKVESGSGPRHICFHPNQKFAYLINEISGKVIAFSYDKGKLNAIQYIEADTVGAKGSGDIHISPDGKFLYASNRLKADGIAIFSINQEEGTLTKTGYQLTGIHPRNFIISRNGRYLLVACRDSNSIQVFERDSQTGLLKDTGKTIKTNKPVCLKFTF”: “not soluble”; “MSLYCNLLKPIKIGNLELKNRVSFAPTSMGLKLEEKIKKFSDIAKSGVALITLGDVSIRPSFHKVAISLSDEDGVMKYKKIVDEIHNSGAKVSAQLFCSDYDVNLIKDTMKMGITSHDEIKKIMNDGVKDYITNMTKGEIKNIINLFKVTALNAKKAGFDMIQIHGDRLVGSFSSSIFNNRNDEYGGTCDNRSRFASEIISSIRDEVKDIPIDYKFAIRQENPHYGNAGVLLSEVEYFVKKFESLGVNSFHVTLANHSKLEDTIPTNNHPYFKDEGCFLYLADEVKKHTNLPVCGVGKLSSPDFIESIISNNRVDMVSMSRQLLADSNWLQKVKDGRVDEIKKCCYCNKKCADALQTRSQFGCILDEGHHHHHH”: “soluble”; “MTSQRCRRRYFMMIRERIEEKLRAAFQPVFLEVVDESYRHNVPAGSESHFKVVLVSDRFTGERFLNRHRMIYSTLAEELSTTVHALALHTYTIKEWEGLQDTVFASPPCRGAGSIALEHHHHHH”: “not soluble”.
In the case of “MVILMRAPIVEVFSSIQGEGLLVGRRQIFVRFAGCNLNCSYCDTPESRDPSAGRLFTAPELTEIIEGLITPDFHSISITGGEPLLYPDFITELLEESPHRTLLETNGSLPSNAERIAHLFDYASVDIKIAEHFSDNLRSGTTESDISSPGDLIDREIQVINILISRGVNTYCKVVVMPTTGAGYIGALAERLLECVDEPERLPLVIQPCSPPEQWAQNTPRLLEMSQEAGKYMDVYVIPQMHRALGLR”, the “soluble on expression in E. coli” value is “soluble”.
For the sequence “MTMTPVSDPIPIGNQEDKENIEDAENTMNISPACDRILVDHQYTRDVVITGKCSSLTYKKA”, the “soluble on expression in E. coli” value is “not soluble”.
As for “MIGKKILGERYVTVSEAAEIMYNRAQIGELSYEQGCALDYLQKFAKLDKEEAKKLVEELISLGIDEKTAVKIADILPEDLDDLRAIYYKRELPENAEEILEIVRKYI”, the “soluble on expression in E. coli” value is on record as “soluble”.
With “MNDLTLSPIAIIHTPYKEKFSVPRQPNLVEDGVGIVELLPPYNSPEAVRGLEQFSHLWLIFQMDQIQQGKWQPTVRPPRLGGNQRVGVFASRATHRPNPLGMSKVELRQVECINGNIFLHLGAVDLVDGTPIFDIKPYIAYADSEPNAQSSFAQEKLPVKMTVEFTEQAKSAVKKREEKRPHLSRFIRQVLEQDPRPAYQQGKPSDRIYGMSLYEFNVKWRIKAGTVNCVEVIEIEKDKLEHHHHHH” the entry was “soluble”.
Next, “MKTAQEFRAGQVANINGAPWVIQKAEFNKSGRNAAVVKMKLKNLLTGAGTETVFKADDKLEPIILDRKEVTYSYFADPLYVFMDSEFNQYEIEKDDLEGVLTFIEDGMTDICEAVFYNDKVISVELPTTIVRQIAYTEPAVRGDTSGKVMKTARLNNGAELQVSAFCEIGDSIEIDTRTGEYKSRVKA”: “not soluble”; “MAHHHHHHMNVRKGILNYLTLHSTIVRRNHHRSYHKECRQQGSPHGMEKNSKMKNVRPNYFVCIPLSGNKALVEEFLKVQNHVASKFEMLKECAIERNKFHISLLILHVKKSQMESSKEAFHEAMAEIKKLNHQAISFDTLETFRNDVLYAGLQEGSRKYVMNVIALLRDSFAKRDIHIFGNRKGREEARGKKRASGASDKSAANPIDKSAANPSDKSAAPPGTHERDDKEQITPHVTIMKNSYLRKIYANRKPQIFADYYADFNLSKLKNERVVPNKIQFLEMDTDSATSYYRIIAECGLP”: “not soluble”; “MFKRVHLIVLDSVGIGEAPDAEKFGDVGSDTLGHIAKEAGLTIPHLEKLGLGTIAPLTGVKAVADHDGYATKLEEISVGKDTMTGHWEIMGLNIKKPFRVFPNGFPEELLKQIEDFSGRKVVCNKPYSGTAVIDDYGEHQMKTGDLIVYTSADPVLQIAAHEDIIPLEELYKICQYVRDITKDEPYMIGRIIARPYVGEPGNFTRTSNRHDYALDPFGHTVLDSLKENGNDVIAVGKINDIFNGQGITEAIRTKSNMDGVDQLLTVMNKEFTGLSFTNLVDFDALYGHRRDVKGYAKAIEDFDGRLPEIMAAMAEDDLLLITADHGNDPTFPGTDHTREYVPLLAYSKKMTKQGSLPQGFYSDISATIAENFEVPATENGQSFLNQLQ”: “not soluble”.
